Here are results for one molecule from patent US9744220B2, “Compositions and methods for treating inflammatory diseases” (priority 2013, dated 2017).

Entries after “also recorded” stand apart in the source; their conditions may differ.

The conditions of series [1]: IV, naive mice; cited from earlier work.
For series [2], the system named is MCP-1 and FKN receptors CCR2 and CX3CR1. In words: IV sPDNF into naïve mice, chemokine receptor transcripts by qPCR. In kind it is in vivo. The protocol:
For the results depicted in FIGS. 12A and 12B, mice (3/group) were injected with various single doses of IV sPDNF, and sacrificed 3 hr post-injection. FIG. 12A is a graph showing the mRNA expression of MCP-1 receptor CCR2, as quantified by qPCR in the heart and liver. FIG. 12B is a graph showing the mRNA expression of FKN receptor CX3CR1, as quantified by qPCR in the heart and liver. […] For the results depicted in FIGS. 12C and 12D, mice (3/group) were injected with vehicle (Veh) or multiple doses of IV sPDNF (25 μg per injection) at 0, 3 and 24 hr, and sacrificed 24 hr after the last injection. FIG. 12C is a graph showing mRNA expression of CCR2, as quantified by qPCR in the liver, colon and heart (ventricles and atria). FIG. 12D is a graph showing mRNA expression of CX3CR1, as quantified by qPCR in the liver, colon and heart (ventricles and atria). Notice a statistically significant upregulation of MCP-1 and FKN receptors in the heart and liver 48-h after the start of three doses of IV sPDNF spaced within a 24 h span; *P<0.05, and ** P<0.01
One of the functions of MCP-1 and FKN is to attract cells expressing their receptors (CCR2 and CX3CR1, respectively) to tissue sites. […] Thus, sPDNF-induced MCP-1 and FKN promoted migration of cells bearing CCR2 and CX3CR1 receptors.
RNA was isolated from Trizol lysates of cell monolayers or liquid nitrogen snap frozen tissue samples dissociated by a Tissue-Tearor mechanical homogenizer (Biospec Products, Inc.). cDNA was synthesized using the Quantitect Reverse Transcription kit (Qiagen) according to manufacturer's instructions. Chemokine and chemokine receptor transcripts were amplified using specific primers and normalized to HPRT using SYBR Green (Qiagen), and, if needed, expressed relative to control-unstimulated cells. The following primers were used: […]
sPDNF was diluted in sterile endotoxin-free PBS (200 μl) and injected via the tail vein into 6-8 week old female C57BL/6 mice. Mice receiving single IV injections of 150 μg sPDNF per mouse were sacrificed at 3, 6, 9, and 12 hr post-injection, or various doses of sPDNF (100 ng-150 μg) and sacrificed 3 hr post-injection. Mice receiving multiple injections of sPDNF or PBS vehicle control (0, 3, and 24 hr, 100 μg per injection) were sacrificed 24 hr after the last injection (i.e., 48 hr after the first injection). Mice were perfused with PBS and organs harvested as described above.
(In general: In qPCR the cycle at which signal appears reflects the starting amount.)

Series [3] concerns cardiac inflammatory and fibrogenic markers. Kind of series: Chronic Chagas cardiomyopathy (CCC) mice, transcripts by qPCR. In kind it is in vivo. The protocol: FIG. 3A depicts in vivo experimental design, groups, treatment and timeline for the infective and anti-inflammatory effects of sPDNF. C57BL/6 mice (7 per group) were injected intraperitoneally with T cruzi Colombian strain (8×10^2 per mouse) and, four months later, intravenously with PBS (vehicle) or sPDNF (1 mg/kg body weight) at 0, 3, and 24 hours, weekly for 3 weeks. Mice were sacrificed 50 days after the first set of IV sPDNF treatment. FIG. 3B are images of heart (ventricle) paraffin-embedded, sectioned, and stained with H&E. Arrows indicate foci of inflammatory infiltrates, which were abundant in sham-treated (IV PBS) CCC mice and rare in IV sPDNF-treated CCC mice. Similar histology was found in other tissue sections and in a distinct set of sPDNF-treated and PBS-sham mice.
FIG. 5A is a graph showing transcript expression for inflammatory cytokines in hearts of the infected mice, as assessed by qPCR for the indicated transcripts, which were normalized to HPRT and made relative to uninfected vehicle-treated mice. Values for IFN-λ were reduced by 3-fold; **, p<0.01. FIG. 5B is a graph showing transcript expression for inflammatory cell markers in hearts of the infected mice, as assessed by qPCR for the indicated transcripts, which were normalized to HPRT and made relative to uninfected vehicle-treated mice. Values for CD8, and CD4 were reduced by 15-, and 1.5-fold, respectively; **, p<0.01, ***, p<0.001. FIG. 5C is a graph showing transcript expression for inflammatory cytokines in hearts of the infected mice, as assessed by qPCR for the indicated transcripts, which were normalized to HPRT and made relative to uninfected vehicle-treated mice. FIG. 5D is a graph showing percent reduction of cardiac inflammatory markers of mice chronically infected with T cruzi, using data from FIGS. 5A-5C. Baseline represents mean transcripts of uninfected mice. FIG. 5E is a graph showing expression of TSG-6 transcripts in heart and liver of T cruzi infected mice. Heart (ventricles+atria) and liver of mice (5 per group) infected acutely (25-day post injection) (Acute) or chronically (6-months PI, CCC, same as in FIG. 3) with T cruzi Colombian were assessed for TSG-6 transcript by qPCR and plotted relative to uninfected mice set at 1.0; **, P<0.001. […] is a graph showing TSG-6 serum levels assessed by ELISA (MyBiosource) in mice uninfected (Un-Inf) or bearing CCC and injected IV with vehicle PBS or sPDNF following the protocol described in FIG. 3. Bars represent the average (±SD) of three mice per point; two separate experiments, **, P<0.01.

Setting [4] is: IV at 0, 3 and 24 hr, measured 24 hr after the last injection.
The mark [5] stands for this setting: hearts of infected (CCC) mice, FIG. 5B.

B1: sPDNF: N-terminal short-form of T cruzi PDNF that contains Trk-binding sites, recombinant; amino acids 1-588 of SEQ ID NO: 2; JR-100 is the commercial name (protein, listed as Trypanosoma cruzi)
chain: MGKTVVVASRMFWLMFFVPLLLAICPSEPAYALAPGSSRVELFKRKNSTVPFEDKAGKVTERVVHSFRLPALVNVDGVMVAIADARYDTSNDNSLIDTVAKYSVDDGETWETQIAIKNSRVSSVSRVVDPTVIVKGNKLYVLVGSYYSSRSYWSSHGDARDWDILLAVGEVTKSTAGGKITASIKWGSPVSLKKFFPAEMEGMHTNQFLGGAGVAIVASNGNLVYPVQVTNKKKQVFSKIFYSEDDGKTWKFGKGRSDFGCSEPVALEWEGKLIINTRVDWKRRLVYESSDMEKPWVEAVGTVSRVWGPSPKSNQPGSQSSFTAVTIEGMRVMLFTHPLNFKGRWLRDRLNLWLTDNQRIYNVGQVSIGDENSAYSSVLYKDDKLYCLHEINTDEVYSLVFARLVGELRIIKSVLRSWKNWDSHLSSICTPADPAASSSESGCGPAVTTVGLVGFLSGNASQNVWEDAYRCVNASTANAERVRNGLKFAGVGGGALWPVSQQGQNQRYRFANHAFTLVASVTIHEAPRAASPLLGASLDSSGGKKLLGLSYDEKHQWQPIYGSTPVTPTGSWETGKRYHLVLTMANKI
Regarding B1, in series [1], the “half-life in the blood” value is listed as roughly 15 min and the “time of peak in the myocardium post-injection” value is listed as roughly 15 min. Further, in series [2] (setting [4]), the “CCR2 in the liver and heart (ventricle and atrium)” value is on record as “significant increase”; the “CX3CR1 in the liver and heart (ventricle and atrium)” value is listed as “significant increase”. In series [2] (single IV dose (150 μg)), the “CCR2 transcripts in cardiac and hepatic tissues” value was “did not increase”; the “CX3CR1 transcripts in cardiac and hepatic tissues” value is reported as “did not increase”. In series [3] (CCC mice, IV), the “expression of anti-inflammatory TSG-6 in the heart and liver” value is reported as “increased expression; also recorded: restored TSG-6 transcript to levels seen in acutely infected mice”; the “transcripts of cardiac inflammatory and fibrogenic markers” value is recorded as “global decrease”. For the same molecule, in series [3] (hearts of infected (CCC) mice, FIG. 5A), the “IFN-λ transcript values reduced” value is on record as 3 fold. In series [3] (setting [5]), the “CD4 transcript values reduced” value worked out at 1.5 fold and the “CD8 transcript values reduced” value turned out to be 15 fold. The “cardiac inflammation (CD8 lymphocyte infiltrates, pro-inflammatory cytokines such as tumor necrosis factor-α)” value in series [3] (model of chronic Chagas disease, intravenous) is “reduced”.
